Data on three molecules can be found in patent US5550216A, “Gelatinase A inhibitor, and analytical reagent thereof for the determination of gelatinase A” (Oriental Yeast Co., Ltd., priority 1993, dated 1996).

The target in one data set is T1, gelatinase A (Homo sapiens, UniProt P08253).
T1 construct: made in house; host or cells: Natural (endogenous) secretion of the T98G human glioblastoma cell line
T1 sequence (P08253 110-660): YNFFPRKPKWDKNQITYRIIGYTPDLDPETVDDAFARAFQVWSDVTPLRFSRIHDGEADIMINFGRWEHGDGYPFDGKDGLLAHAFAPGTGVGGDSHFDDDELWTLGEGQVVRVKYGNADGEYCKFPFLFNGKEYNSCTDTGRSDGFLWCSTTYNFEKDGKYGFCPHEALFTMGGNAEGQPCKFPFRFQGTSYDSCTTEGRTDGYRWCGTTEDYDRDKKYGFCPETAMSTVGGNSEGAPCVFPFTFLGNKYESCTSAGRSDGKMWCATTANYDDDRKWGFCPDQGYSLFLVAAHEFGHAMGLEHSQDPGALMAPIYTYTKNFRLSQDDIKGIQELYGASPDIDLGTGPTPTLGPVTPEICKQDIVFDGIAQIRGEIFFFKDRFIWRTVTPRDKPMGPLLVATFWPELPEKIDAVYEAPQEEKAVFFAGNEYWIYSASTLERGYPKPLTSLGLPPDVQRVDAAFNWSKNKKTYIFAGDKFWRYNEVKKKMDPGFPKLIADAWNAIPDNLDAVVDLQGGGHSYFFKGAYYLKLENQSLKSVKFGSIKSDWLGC
Put plainly: Hydrolysis of synthetic peptide βAP10-20 by activated gelatinase A (reverse phase HPLC), enzyme kinetic analysis. Conditions: hydrolysis of β-AP10-20 by APMA/stromelysin activated gelatinase A; from slope of Dixon plot (1/v vs (I)). Format: biochemical. On the procedure: (§1) FIGS. 5 (A) and (B) show the degradation of synthetic peptide βAP10-20by gelatinase A. By heparin affinity chromatography according to the method by (Kelkenbrock), TIMP-2-free progelatinase A was isolated from TIMP-2 binding form. Proenzyme (1 μg) was activated by incubating for 1 hour at 37° C. in 20 mMTris-HCl (pH 7.5) containing 10 mMCa^2+ with 1 mMAPMA and 0.25 μg of rat stromelysin. Then, the activated enzyme was incubated for 6 hours at 37° C. in the absence or presence of 5 μg of 100-kDa APP in 50 μl of Tris-HCl/Ca^2+ buffer with 20 nmol (28 μg) of synthetic peptide β-AP10-20 (cf. FIG. 2D). Then the mixture was admixed with 0.5 ml of 0.05% trifluoroacetic acid (TFA), and loaded to Cosmosil 5C18 reverse phase HPLC column (4.6×150 mm) (Nacalai Tesque, Kyoto, Japan). The column was eluted at the flow rate of 0.5 ml/min with 15 ml of 0 to 80% linear gradient acetonitrile in 0.05% TFA. The amino acid sequence of the […] was analyzed by a protein sequencer. As previously reported, rat stromelysin was purified with the proenzyme form and activated by APMA. Under the condition described above, stromelysin hardly hydrolyzed βAP10-20.
(§2) FIG. 5(A) and (B) represent enzyme kinetic analysis of the inhibition of gelatinase A activity by 100-bDa APP. […] The maximum concentration of 100-kDa APP ([…]) corresponded to about 910 nM. […]

In another data set the target is T2, human progelatinase A (Homo sapiens, UniProt P08253).
T2 construct: obtained from the culture supernatant of T98G human glioblastoma cell line; made in house; host or cells: Natural (endogenous) secretion of the T98G human glioblastoma cell line, purified from the culture supernatant
T2 sequence (P08253 110-660): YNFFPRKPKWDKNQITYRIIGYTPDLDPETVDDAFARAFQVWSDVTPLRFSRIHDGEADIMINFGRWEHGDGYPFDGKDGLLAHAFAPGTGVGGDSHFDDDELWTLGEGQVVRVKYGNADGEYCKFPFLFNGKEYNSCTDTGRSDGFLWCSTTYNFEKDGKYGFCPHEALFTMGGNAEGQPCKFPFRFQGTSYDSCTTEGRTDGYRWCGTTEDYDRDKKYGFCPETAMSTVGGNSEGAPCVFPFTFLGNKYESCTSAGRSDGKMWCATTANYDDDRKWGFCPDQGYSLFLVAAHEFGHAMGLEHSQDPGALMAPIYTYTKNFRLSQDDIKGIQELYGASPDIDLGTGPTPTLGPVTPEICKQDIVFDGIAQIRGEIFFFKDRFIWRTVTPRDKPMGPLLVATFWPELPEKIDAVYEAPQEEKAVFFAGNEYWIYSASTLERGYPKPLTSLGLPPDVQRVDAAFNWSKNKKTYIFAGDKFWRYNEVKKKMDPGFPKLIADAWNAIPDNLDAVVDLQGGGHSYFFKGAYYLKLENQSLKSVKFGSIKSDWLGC
The data set can be described thus: Reverse zymography of gelatinase A inhibitor on gelatine-containing SDS polyacrylamide gel. The data set is classed as biochemical. The conditions noted are these: 0.2 μg/lane protein; gel incubated with 1 μg/ml human progelatinase A and 1 mM APMA. The source says:
The large triangle arrow represents 100-kDa inhibitor. Three small triangle arrows represent TIMP (28 kDa), unidentified 22-kDa inhibitor and TIMP-2 (20 kDa). The bands of negative image (white lines) indicate gelatine degradation activity secreted by tumor cells. b represents the results of non-reductive SDS-PAGE of purified 100-kDa inhibitor, while c represents the results of SDS-PAGE (lanes 1 to 3) and the reverse zymograms of 100-kDa inhibitor (lane 1, 2, 4 and 5) and human TIMP (lane 3 and 6). Equal amount (0.2 μg/lane) of the protein was analyzed under reductive condition (lanes 2 and 5) and non-reductive condition (lane 1, 3, 4 and 6). […] 100-kDa inhibitor (200 μg) was incubated with 0.3 μg of endoproteinase Lys-C (Sigma, St. Louis, Mo.) for 60 minutes at 30° C. in 60 μl of 50 mM Tris-HCl (pH 7.5) containing 2M urea and 1M NaCl, and a part of digestion products were subjected to electrophoresis. As a result, a peptide from 439V through 687 k of the amino acid sequence in FIG. 1 was obtained.
The supernatant of EJ-1 cell culture which had been incubated for 2 days in serum-free RPMI1640 medium was used for the preparation. The reverse zympgraphy of gelatinase A inhibitor was conducted on polyacrylamide gel containing 0.1% SDS and 1 mg/ml of gelatine by a modified Herroh's method. […]

Substrate in data set [1]: CC(C)C[C@H](NC(=O)[C@H](CCCCN)NC(=O)[C@H](CCC(N)=O)NC(=O)[C@H](Cc1c[nH]cn1)NC(=O)[C@H](Cc1c[nH]cn1)NC(=O)[C@@H](NC(=O)[C@H](CCC(=O)O)NC(=O)[C@@H](N)Cc1ccc(O)cc1)C(C)C)C(=O)N[C@H](C(=O)N[C@@H](Cc1ccccc1)C(=O)N[C@@H](Cc1ccccc1)C(=O)O)C(C)C
The data set can be described thus: Hydrolysis of synthetic peptide βAP10-20 by activated gelatinase A (reverse phase HPLC), enzyme kinetic analysis. Format: biochemical, human. Conditions: other: hydrolysis of βAP10-20 by activated gelatinase A; Lineweaver-Burk plots, 30 to 400 μM substrate; pH 7.5. The procedure: as §1, §2

A word on the Ki: it is the dissociation constant of the complex between target and ligand, obtained from inhibition or displacement. A high value points to a looser hold on the target. A word on the Km: it is the concentration of substrate that gives half-maximal velocity. As usually defined, the Vmax is the top rate of the reaction or transport when substrate is in excess.

“100-kDa APP: secretory form of APP (gelatinase A inhibition protein), 100k, from EJ-1 culture fluid; 18L through 687K of APP770” displayed a Ki with gelatinase A of 40 nM. In addition, the “inhibitor bands on the reverse zymograms” value in the data set with human progelatinase A was “markedly stained gelatine bands (inhibitor bands)”. Consider “human TIMP: known gelatinase inhibitor (28 kDa) used as comparison in reverse zymography [reference compound]”, for which the “inhibitor bands on the reverse zymograms” value in the data set with human progelatinase A is “markedly stained gelatine bands (inhibitor bands)”.

B1: gelatinase A (Homo sapiens) (protein)
chain: YNFFPRKPKWDKNQITYRIIGYTPDLDPETVDDAFARAFQVWSDVTPLRFSRIHDGEADIMINFGRWEHGDGYPFDGKDGLLAHAFAPGTGVGGDSHFDDDELWTLGEGQVVRVKYGNADGEYCKFPFLFNGKEYNSCTDTGRSDGFLWCSTTYNFEKDGKYGFCPHEALFTMGGNAEGQPCKFPFRFQGTSYDSCTTEGRTDGYRWCGTTEDYDRDKKYGFCPETAMSTVGGNSEGAPCVFPFTFLGNKYESCTSAGRSDGKMWCATTANYDDDRKWGFCPDQGYSLFLVAAHEFGHAMGLEHSQDPGALMAPIYTYTKNFRLSQDDIKGIQELYGASPDIDLGTGPTPTLGPVTPEICKQDIVFDGIAQIRGEIFFFKDRFIWRTVTPRDKPMGPLLVATFWPELPEKIDAVYEAPQEEKAVFFAGNEYWIYSASTLERGYPKPLTSLGLPPDVQRVDAAFNWSKNKKTYIFAGDKFWRYNEVKKKMDPGFPKLIADAWNAIPDNLDAVVDLQGGGHSYFFKGAYYLKLENQSLKSVKFGSIKSDWLGC
notes: made in house; host or cells: Natural (endogenous) secretion of the T98G human glioblastoma cell line
For the molecule B1, in data set [1], the Km came to 130 µM and the Vmax stood at 3.9 nmol/h.
